This series relates to thrombin-cleavable lipopeptide conjugate (TCP-stearate).

For thrombin, the “MALDI-TOF mass spectroscopy of TCP-stearate before and after exposure to thrombin (30 minutes, 250 nM)” value was “thrombin could efficiently cleave the conjugate, evidenced by the fact that after thrombin exposure very little of the TCP-stearate conjugate remains (peak at 1046 m/z), whereas 2 new degradation peaks appear (495 and 534 m/z)”.

For the origin of these results see US20250041390.
